Results published in the supplement of paper PMC5998384.

What was measured:
[1] = tested on: HeLa Kyoto; experiment: solubility change mitosis vs G1/S (difference of NP-40 vs SDS log2 ratios) (log2 ratio difference); higher = more soluble in mitosis
[2] = tested on: HeLa Kyoto; experiment: melting temperature (median over replicates), in situ; higher = more thermally stable
[3] = tested on: HeLa Kyoto; experiment: solubility in G1/S (NP-40 vs SDS abundance) (log2 ratio); higher = more soluble; conditions: cell cycle stage: G1/S
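Throughout, for melting temperature (median over replicates), in situ: HeLa Kyoto cells synchronized by double thymidine or nocodazole block, proteins quantified by TMT10plex mass spectrometry, three independent biological replicates.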
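Throughout, for solubility change mitosis vs G1/S (difference of NP-40 vs SDS log2 ratios): synchronized HeLa Kyoto cells (double thymidine block for G1/S, nocodazole release for mitosis), protein amounts in NP-40 versus SDS lysates quantified by mass spectrometry, three biological replicates.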
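Throughout, for solubility in G1/S (NP-40 vs SDS abundance): HeLa Kyoto cells arrested at G1/S by double thymidine block, proteins quantified by TMT10plex mass spectrometry in mild NP-40 versus SDS extracts, three biological replicates.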

IRF2BPL, sequence (chain, as listed by the source): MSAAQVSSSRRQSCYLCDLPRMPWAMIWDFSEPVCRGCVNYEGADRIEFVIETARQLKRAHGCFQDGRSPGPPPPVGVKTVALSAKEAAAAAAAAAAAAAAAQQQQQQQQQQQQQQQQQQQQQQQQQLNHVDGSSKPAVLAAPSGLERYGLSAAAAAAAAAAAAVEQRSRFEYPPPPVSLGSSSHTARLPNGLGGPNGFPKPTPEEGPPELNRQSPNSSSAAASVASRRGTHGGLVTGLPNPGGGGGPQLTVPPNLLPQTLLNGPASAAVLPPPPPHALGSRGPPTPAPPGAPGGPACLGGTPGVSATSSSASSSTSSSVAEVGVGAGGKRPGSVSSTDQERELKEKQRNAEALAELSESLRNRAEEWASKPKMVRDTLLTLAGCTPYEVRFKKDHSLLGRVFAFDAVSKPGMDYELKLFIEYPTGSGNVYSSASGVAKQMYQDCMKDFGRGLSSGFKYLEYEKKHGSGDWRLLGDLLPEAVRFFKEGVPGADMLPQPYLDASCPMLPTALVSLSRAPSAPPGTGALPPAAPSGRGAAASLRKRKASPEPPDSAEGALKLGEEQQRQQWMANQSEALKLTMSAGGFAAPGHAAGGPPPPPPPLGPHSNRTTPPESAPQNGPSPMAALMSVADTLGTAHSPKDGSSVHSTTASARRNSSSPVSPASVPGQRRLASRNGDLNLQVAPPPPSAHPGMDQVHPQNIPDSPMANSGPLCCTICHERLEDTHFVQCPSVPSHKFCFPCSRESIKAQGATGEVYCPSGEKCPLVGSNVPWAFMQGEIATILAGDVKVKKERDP
HAUS7, sequence (chain, as listed by the source): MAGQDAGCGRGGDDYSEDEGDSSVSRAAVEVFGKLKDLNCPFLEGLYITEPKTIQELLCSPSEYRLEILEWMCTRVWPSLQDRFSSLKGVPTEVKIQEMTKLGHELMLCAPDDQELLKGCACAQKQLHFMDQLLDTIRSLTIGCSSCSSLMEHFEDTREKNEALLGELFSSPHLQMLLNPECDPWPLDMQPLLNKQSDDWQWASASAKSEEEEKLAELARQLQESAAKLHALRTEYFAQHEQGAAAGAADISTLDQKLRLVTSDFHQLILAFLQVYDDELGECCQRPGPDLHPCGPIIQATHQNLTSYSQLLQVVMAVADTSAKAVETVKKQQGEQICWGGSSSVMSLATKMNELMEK

Substance | solubility change mitosis (log2) [1] | melting temperature ([2]; cell cycle stage: G1/S) | melting temperature ([2]; cell cycle stage: mitosis) | solubility in G1/S (log2) [3]
BAZ2A | 0.217 | 48.3 °C | 49.6 °C | -0.382
DLG5 | 0.289 | – | 47.5 °C | -0.385
HAUS7 | -0.0535 | 50.7 °C | – | 0.51
IRF2BPL | -0.131 | 50 °C | 50.9 °C | 0.519
KANSL3 | 0.061 | – | 48.6 °C | 0.155
MAAAAPNAGGSAPETAGSAEAPLQYSLLLQYLVGDKRQPRLLEPGSLGGIPSPAKSEEQKMIEKAMESCAFKAALACVGGFVLGGAFGVFTAGIDTNVGFDPKDPYRTPTAKEVLKDMGQRGMSYAKNFAIVGAMFSCTECLIESYRGTSDWKNSVISGCITGGAIGFRAGLKAGAIGCGGFAAFSAAIDYYLR [TIMM22] | -0.0464 | 56 °C | 56.3 °C | 0.0827
MAAATIVHDTSEAVELCPAYGLYLKPITKMTISVALPQLKQPGKSISNWEVMERLKGMVQNHQFSTLRISKSTMDFIRFEGEVENKSLVKSFLACLDGKTIKLSGFSDILKVRAAEFKIDFPTRHDWDSFFRDAKDMNETLPGERPDTIHLEGLPCKWFALKESGSEKPSEDVLVKVFEKFGEIRNVDIPMLDPYREEMTGRNFHTFSFGGHLNFEAYVQYREYMGFIQAMSALRGMKLMYKGEDGKAVACNIKVSFDSTKHLSDASIKKRQLERQKLQELEQQREEQKRREKEAEERQRAEERKQKELEELERERKREEKLRKREQKQRDRELRRNQKKLEKLQAEEQKQLQEKIKLEERKLLLAQRNLQSIRLIAELLSRAKAVKLREQEQKEEKLRLQQQEERRRLQEAELRRVEEEKERALGLQRKERELRERLLSILLSKKPDDSHTHDELGVAHADLLQPVLDILQTVSSGCVSATTLHPLGGQPPAGAPKESPAHPEADGAPKSVNGSVAEEAPCKEVQSSCRVVPEDGSPEKRCPGGVLSCIPDNNQQPKGIPACEQNVSRKDTRSEQDKCNREPSKGRGRATGDGLADRHKRERSRARRASSREDGRPRKERRPHKKHAYKDDSPRRRSTSPDHTRSRRSHSKDRHRRERSRERRGSASRKHSRHRRRSERSRSRSPSRHRSTWNR [AKAP17A] | 0.521 | 47 °C | 49.2 °C | -1.06
MAADVSVTHRPPLSPKSGAEVEAGDAAERRAPEEELPPLDPEEIRKRLEHTERQFRNRRKILIRGLPGDVTNQEVHDLLSDYELKYCFVDKYKGTAFVTLLNGEQAEAAINAFHQSRLRERELSVQLQPTDALLCVANLPPSLTQQQFEELVRPFGSLERCFLVYSERTGQSKGYGFAEYMKKDSAARAKSDLLGKPLGPRTLYVHWTDAGQLTPALLHSRCLCVDRLPPGFNDVDALCRALSAVHSPTFCQLACGQDGQLKGFAVLEYETAEMAEEAQQQADGLSLGGSHLRVSFCAPGPPGRSMLAALIAAQATALNRGKGLLPEPNILQLLNNLGPSASLQLLLNPLLHGSAGGKQGLLGAPPAMPLLNGPALSTALLQLALQTQGQKKPGILGDSPLGALQPGAQPANPLLGELPAGGGLPPELPPRRGKPPPLLPSVLGPAGGDREALGLGPPAAQLTPPPAPVGLRGSGLRGPLSHFYSGSPTSYFTSGLQAGLKQSHLSKAIGSSPLGSGEGLLGLSPGPNGHSHLLKVRAGGGDMQGWEAPAPQRPLTRPALPSVSRPHWAARNAALPTCCPRPSPAQKAAMWASTPRASAATTRTPT [RAVER1] | 0.165 | 46.3 °C | 48.9 °C | 0.344
MAALGRPFSGLPLSGGSDFLQPPQPAFPGRAFPPGADGAELAPRPGPRAVPSSPAGSAARGRVSVHCKKKHKREEEEDDDCPVRKKRITEAELCAGPNDWILCAHQDVEGHGVNPSVSGLSIPGILDVICEEMDQTTGEPQCEVARRKLQEIEDRIIDEDEEVEADRNVNHLPSLVLSDTMKTGLKREFDEVFTKKMIESMSRPSMELVLWKPLPELLSDKPKPSSNTKNYTGESQAKHVAAGTAFPQRTELFSEPRPTGMSLYNSLETATSTEEEMEL [CCDC117] | 0.183 | 51.6 °C | 53.2 °C | 0.515
